Target: mutant (M97S, F110S) EndoBAR (endophilin Bin–Amphiphysin–Rvs domain of mouse endophilinA1) (mouse)
Assay: cross-linking

For “mutant (M97S, F110S) EndoBAR (endophilin Bin–Amphiphysin–Rvs domain of mouse endophilinA1) (domain or fragment)”, the stoichiometry N was 2.

Reference: paper PMC4927284
